Patent EP3553078A1 (Julius-Maximilians-Universität Würzburg, dated 2019)

Biological target: T1, IL-4Rα ectodomain (site-specifically biotinylated IL-4Rα ectodomain protein) (human, UniProt P24394 26-232, site-specifically biotinylated (site not stated))
T1 construct: extracellular domain; Immobilised on a streptavidin-coated SPR chip; also called IL-4Rα ECD; IL-4 receptor α
T1 sequence (looked up): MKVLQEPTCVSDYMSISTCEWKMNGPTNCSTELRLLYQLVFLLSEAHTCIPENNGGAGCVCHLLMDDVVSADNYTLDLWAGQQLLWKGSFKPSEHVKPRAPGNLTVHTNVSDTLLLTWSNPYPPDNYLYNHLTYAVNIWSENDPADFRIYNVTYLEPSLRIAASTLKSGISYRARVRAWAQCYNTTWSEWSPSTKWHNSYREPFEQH
Experiment: in vitro interaction analysis (SPR) on IL-4Rα

B1: IL-4 mutein F82D Q20N T28N K61N R121C-Glc (Hek293-derived, hyper-glycosylated) (ligand)
chain: HKCDITLQEIIKTLNSLTENKTLCTELNVTDIFAASKNTTEKETFCRAATVLRQFYSHHENDTRCLGATAQQFHRHKQLIRDLKRLDRNLWGLAGLNSCPVKEANQSTLENFLERLKTIMCEKYSKCSS
modifications: complex N-glycans at positions 38, 20, 28 and 61; disulphide conjugated glucose at Cys121
notes: also called Q20N/T28N/K61N/F82D/R121C-Glc; 3rd generation IL-4 antagonist; not shown: C-terminal thrombin cleavage site and hexahistidine tag of the modified pHLsec vector
Kd: ~0.218 nM
